The target of assay [1] is CD44 on human lung fibroblasts (human) (UniProt P16070). The assay can be described thus: LRC-TriCEPS ligand-receptor capture on living human lung fibroblasts (n=3 donors), LC-MS/MS enrichment; reference ligand transferrin (TRFE).
Assay [2] has as its target ADRB1 on human lung fibroblasts (human) (UniProt P08588). The description is as above.
Assay [3] addresses GPC1 on human lung fibroblasts (human) (UniProt P35052). The description is as above.
The target of assay [4] is CAVN1 in human lung fibroblasts (human) (UniProt Q6NZI2). The description is as above.
CAVN1 in human lung fibroblasts (human), sequence (Q6NZI2 whole entry): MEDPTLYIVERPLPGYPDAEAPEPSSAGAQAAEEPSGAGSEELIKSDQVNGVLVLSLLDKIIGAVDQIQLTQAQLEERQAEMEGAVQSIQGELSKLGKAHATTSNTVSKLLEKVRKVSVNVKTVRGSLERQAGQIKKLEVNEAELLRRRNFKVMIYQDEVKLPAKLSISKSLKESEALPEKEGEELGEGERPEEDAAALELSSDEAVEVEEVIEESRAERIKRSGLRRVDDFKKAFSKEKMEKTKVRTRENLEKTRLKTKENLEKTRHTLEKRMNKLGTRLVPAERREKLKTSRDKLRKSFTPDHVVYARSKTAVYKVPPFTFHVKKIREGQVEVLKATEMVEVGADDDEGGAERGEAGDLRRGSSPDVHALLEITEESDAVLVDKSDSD
Assay [5] deals with SNX18 in human lung fibroblasts (human) (UniProt Q96RF0). Described as above.
In assay [6] the target is CD248 on human lung fibroblasts (human) (UniProt Q9HCU0). The assay is described as above.
Assay [7] deals with ADT3 in human lung fibroblasts (human) (UniProt P12236). The description is as above.
ADT3 in human lung fibroblasts (human), sequence (P12236 whole entry): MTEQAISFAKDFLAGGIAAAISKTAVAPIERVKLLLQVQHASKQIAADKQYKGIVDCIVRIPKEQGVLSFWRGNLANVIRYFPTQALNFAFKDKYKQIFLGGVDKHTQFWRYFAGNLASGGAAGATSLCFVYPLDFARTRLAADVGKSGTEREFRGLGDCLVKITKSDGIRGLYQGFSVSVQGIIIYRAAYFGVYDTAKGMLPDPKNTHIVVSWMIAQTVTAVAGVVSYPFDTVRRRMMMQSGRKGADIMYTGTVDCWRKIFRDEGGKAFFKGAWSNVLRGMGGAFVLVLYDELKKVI
Assay [8] deals with NRP1 on human lung fibroblasts (human) (UniProt O14786). Described as above.
NRP1 on human lung fibroblasts (human), sequence (O14786 22-923): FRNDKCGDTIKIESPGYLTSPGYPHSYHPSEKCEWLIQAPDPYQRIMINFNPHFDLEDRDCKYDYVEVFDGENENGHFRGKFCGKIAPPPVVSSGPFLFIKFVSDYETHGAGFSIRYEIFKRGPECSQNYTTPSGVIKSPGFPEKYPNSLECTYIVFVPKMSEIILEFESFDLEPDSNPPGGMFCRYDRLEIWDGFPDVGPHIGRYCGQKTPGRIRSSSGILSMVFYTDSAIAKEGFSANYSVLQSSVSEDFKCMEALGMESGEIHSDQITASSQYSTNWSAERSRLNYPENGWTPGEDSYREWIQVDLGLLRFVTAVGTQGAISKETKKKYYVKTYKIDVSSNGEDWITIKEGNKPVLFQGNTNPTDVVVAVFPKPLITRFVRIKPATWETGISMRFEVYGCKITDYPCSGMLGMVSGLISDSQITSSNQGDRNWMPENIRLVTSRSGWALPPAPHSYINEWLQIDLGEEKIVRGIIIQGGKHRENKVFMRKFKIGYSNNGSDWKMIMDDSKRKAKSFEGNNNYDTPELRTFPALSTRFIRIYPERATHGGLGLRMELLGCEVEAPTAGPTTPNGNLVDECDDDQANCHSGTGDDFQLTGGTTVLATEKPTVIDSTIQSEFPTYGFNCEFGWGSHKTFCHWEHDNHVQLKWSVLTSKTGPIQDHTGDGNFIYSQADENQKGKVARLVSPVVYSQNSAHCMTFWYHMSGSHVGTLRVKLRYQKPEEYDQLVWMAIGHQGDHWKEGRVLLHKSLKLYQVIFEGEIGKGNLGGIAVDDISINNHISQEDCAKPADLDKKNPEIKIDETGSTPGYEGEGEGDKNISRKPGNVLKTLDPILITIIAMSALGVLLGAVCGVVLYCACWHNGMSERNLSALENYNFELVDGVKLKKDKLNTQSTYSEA
In assay [9] the target is RECK on human lung fibroblasts (human) (UniProt O95980). The assay is described as above.
The target in assay [10] is CSPG4 on human lung fibroblasts (human) (UniProt Q6UVK1). Described as above.
CSPG4 on human lung fibroblasts (human), sequence (Q6UVK1 30-2322): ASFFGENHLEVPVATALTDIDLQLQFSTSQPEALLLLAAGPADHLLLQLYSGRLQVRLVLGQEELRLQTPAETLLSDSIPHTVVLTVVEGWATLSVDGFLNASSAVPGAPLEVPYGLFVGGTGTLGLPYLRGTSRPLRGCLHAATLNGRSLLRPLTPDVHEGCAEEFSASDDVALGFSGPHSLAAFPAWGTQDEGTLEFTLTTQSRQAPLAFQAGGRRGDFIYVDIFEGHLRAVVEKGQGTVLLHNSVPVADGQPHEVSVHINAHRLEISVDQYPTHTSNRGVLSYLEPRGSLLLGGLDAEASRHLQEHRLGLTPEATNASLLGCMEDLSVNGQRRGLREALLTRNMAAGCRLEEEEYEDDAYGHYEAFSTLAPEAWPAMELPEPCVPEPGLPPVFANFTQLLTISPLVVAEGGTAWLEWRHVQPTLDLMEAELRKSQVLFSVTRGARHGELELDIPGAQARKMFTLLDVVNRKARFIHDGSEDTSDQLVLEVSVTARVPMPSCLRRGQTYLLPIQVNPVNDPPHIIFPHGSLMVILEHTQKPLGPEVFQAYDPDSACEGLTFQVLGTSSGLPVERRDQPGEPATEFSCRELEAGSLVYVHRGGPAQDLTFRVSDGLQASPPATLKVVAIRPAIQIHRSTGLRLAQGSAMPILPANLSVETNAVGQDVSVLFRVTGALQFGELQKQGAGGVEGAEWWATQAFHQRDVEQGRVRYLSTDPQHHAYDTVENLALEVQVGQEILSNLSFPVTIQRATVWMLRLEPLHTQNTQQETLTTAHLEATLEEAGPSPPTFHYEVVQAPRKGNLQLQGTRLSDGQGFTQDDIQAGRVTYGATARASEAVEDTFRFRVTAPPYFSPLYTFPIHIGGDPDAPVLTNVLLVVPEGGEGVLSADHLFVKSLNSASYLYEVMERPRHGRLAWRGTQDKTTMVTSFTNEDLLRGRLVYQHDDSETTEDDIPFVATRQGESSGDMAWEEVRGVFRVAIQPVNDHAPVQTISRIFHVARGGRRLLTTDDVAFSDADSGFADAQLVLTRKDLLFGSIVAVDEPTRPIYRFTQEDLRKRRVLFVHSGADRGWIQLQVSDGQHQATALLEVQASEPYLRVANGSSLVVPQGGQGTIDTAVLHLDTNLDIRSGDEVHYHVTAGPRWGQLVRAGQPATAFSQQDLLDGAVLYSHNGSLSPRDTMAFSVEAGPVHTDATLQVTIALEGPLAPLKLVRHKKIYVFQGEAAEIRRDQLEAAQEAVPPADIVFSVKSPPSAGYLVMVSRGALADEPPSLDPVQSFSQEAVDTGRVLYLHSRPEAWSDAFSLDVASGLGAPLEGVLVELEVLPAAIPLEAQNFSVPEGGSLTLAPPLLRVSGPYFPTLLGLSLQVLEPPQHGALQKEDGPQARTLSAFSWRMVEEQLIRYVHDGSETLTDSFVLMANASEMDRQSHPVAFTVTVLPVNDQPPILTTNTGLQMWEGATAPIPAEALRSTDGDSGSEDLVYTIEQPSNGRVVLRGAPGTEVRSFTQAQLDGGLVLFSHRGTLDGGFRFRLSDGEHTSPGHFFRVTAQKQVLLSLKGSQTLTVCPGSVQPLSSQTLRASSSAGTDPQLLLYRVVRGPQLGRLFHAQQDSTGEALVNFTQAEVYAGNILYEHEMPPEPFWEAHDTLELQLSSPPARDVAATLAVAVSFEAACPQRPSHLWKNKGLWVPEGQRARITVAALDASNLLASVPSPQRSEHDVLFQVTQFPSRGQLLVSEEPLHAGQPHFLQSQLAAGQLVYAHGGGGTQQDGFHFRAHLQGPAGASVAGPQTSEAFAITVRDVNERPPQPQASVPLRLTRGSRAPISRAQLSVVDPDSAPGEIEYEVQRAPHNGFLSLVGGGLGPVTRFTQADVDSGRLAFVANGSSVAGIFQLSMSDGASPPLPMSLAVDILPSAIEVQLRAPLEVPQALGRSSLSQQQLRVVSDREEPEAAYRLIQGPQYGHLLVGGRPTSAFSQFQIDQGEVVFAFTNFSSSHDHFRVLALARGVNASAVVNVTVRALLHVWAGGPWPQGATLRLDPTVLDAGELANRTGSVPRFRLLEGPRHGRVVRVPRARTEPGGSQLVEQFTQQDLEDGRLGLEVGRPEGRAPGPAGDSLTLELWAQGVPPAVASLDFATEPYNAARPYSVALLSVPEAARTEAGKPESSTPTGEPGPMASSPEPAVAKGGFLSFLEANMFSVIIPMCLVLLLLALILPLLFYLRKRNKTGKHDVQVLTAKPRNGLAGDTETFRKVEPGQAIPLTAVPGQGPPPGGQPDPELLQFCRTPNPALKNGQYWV
In assay [11] the target is CD44 on human lung fibroblasts (human) (UniProt P16070). The assay can be described thus: LRC-TriCEPS ligand-receptor capture on living human lung fibroblasts (n=3 donors), LC-MS/MS enrichment; reference ligand BSA.
The target in assay [12] is ADRB1 on human lung fibroblasts (human) (UniProt P08588). The assay is described as above.
ADRB1 on human lung fibroblasts (human), sequence (P08588 whole entry): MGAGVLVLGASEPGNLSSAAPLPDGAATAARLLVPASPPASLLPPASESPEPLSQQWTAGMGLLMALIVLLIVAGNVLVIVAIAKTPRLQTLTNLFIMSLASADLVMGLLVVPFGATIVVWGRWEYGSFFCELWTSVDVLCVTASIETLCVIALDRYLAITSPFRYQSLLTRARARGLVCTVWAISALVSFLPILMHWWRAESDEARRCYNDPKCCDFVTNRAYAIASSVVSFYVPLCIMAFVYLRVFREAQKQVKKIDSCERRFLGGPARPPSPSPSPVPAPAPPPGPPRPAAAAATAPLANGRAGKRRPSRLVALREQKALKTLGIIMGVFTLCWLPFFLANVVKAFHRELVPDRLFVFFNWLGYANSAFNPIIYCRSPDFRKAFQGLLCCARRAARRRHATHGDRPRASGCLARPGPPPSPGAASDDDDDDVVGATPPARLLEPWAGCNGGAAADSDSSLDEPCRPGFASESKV
The target in assay [13] is GPC1 on human lung fibroblasts (human) (UniProt P35052). The assay is described as above.
Assay [14] concerns the target CAVN1 in human lung fibroblasts (human) (UniProt Q6NZI2). Described as above.
The target in assay [15] is SNX18 in human lung fibroblasts (human) (UniProt Q96RF0). Described as above.
Assay [16] deals with CD248 on human lung fibroblasts (human) (UniProt Q9HCU0). The description is as above.
Assay [17] addresses ADT3 in human lung fibroblasts (human) (UniProt P12236). The assay is described as above.
The target in assay [18] is NRP1 on human lung fibroblasts (human) (UniProt O14786). The description is as above.
The target of assay [19] is RECK on human lung fibroblasts (human) (UniProt O95980). The description is as above.
The target of assay [20] is CSPG4 on human lung fibroblasts (human) (UniProt Q6UVK1). The assay is described as above.

CD44 on human lung fibroblasts (human), sequence (P16070 21-742): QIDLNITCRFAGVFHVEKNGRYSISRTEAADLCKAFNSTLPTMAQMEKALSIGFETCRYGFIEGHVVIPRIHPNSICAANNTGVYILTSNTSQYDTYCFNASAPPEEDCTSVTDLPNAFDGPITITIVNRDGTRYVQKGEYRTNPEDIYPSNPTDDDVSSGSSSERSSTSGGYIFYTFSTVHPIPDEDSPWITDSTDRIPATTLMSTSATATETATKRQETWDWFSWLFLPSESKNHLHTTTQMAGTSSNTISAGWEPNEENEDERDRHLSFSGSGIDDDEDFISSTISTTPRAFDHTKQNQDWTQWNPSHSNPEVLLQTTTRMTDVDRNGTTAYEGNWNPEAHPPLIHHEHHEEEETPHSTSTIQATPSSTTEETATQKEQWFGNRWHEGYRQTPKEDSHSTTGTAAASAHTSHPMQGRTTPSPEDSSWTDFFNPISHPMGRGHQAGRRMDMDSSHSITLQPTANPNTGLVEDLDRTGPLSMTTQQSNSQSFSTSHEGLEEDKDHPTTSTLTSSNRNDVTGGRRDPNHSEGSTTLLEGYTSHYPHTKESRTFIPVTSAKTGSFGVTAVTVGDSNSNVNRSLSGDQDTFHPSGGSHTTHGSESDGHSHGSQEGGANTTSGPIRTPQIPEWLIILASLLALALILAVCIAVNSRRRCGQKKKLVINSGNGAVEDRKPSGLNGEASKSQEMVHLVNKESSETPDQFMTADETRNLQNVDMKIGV

In the case of “recombinant human IGFBP5 (from UniProt P24593 21-272) (ligand)”, the log2(FC) IGFBP5 vs TRFE (log2 fold change) is -0.6 in assay [1]; -4.1 in assay [2]; -5.5 in assay [3]; -1 in assay [4]; -1.7 in assay [5]; -1.8 in assay [6]. Also, the log2(FC) IGFBP5 vs TRFE (log2 fold change) in assay [7] is -1; in [8] it was -3.7; in [9] it was -2.3; in assay [10], -2.3. Further, the log2(FC) IGFBP5 vs BSA (log2 fold change) in assay [11] was -0.8; in assay [12] it was -4.9; in [13], -5.9; in assay [14], -1.5; in assay [15], -2.5; in [16], -2.2. Also, the log2(FC) IGFBP5 vs BSA (log2 fold change) in [17] was -1.6; in [18] it was -3.8; in assay [19] it was -4.3; in assay [20], -2.2.

Source of the values: patent publication EP4537907A1.
